Test results taken from patent publication US20210253718A1, “FRIZZLED5 PROTEIN-BINDING AGENTS” (Modmab Therapeutics Corporation, priority 2016, published 2021).

T1: FZD8 CRD (Homo sapiens, UniProt Q9H461)
T1 construct: K31-D155; GPI anchor signal (C); expressed in transfected cells; host or cells: CHO cells, lentiviral pLenti-puro
T1 sequence (Q9H461 31-155): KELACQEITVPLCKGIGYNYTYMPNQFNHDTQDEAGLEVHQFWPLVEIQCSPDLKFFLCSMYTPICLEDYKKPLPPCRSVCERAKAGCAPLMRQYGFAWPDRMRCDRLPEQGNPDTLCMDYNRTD

T2: FZD6 CRD (Homo sapiens, UniProt O60353)
T2 construct: S20-P146; GPI anchor signal (C); expressed in transfected cells; host or cells: CHO cells, lentiviral pLenti-puro
T2 sequence (O60353 20-146): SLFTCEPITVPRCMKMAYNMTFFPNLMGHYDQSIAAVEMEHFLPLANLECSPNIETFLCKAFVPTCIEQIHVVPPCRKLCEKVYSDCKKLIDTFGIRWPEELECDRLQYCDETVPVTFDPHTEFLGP

T3: FZD5 CRD (Homo sapiens, UniProt Q13467)
T3 construct: K29-T156; GPI anchor signal (C); expressed in transfected cells; host or cells: CHO cells, lentiviral pLenti-puro
T3 sequence (Q13467 29-156): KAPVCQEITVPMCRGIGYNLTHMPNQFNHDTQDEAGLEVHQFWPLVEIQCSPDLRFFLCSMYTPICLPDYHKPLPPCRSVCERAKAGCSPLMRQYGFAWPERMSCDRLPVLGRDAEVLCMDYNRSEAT


Assays:
PATU8988S cells [1] = experiment: Effect of anti-FZD5 Fabs on proliferation of pancreatic cancer cell lines (percent growth inhibition); format: cell-based, human; conditions: Fab 2 μg/ml
ASPC-1 cells [2] = experiment: as above; format: cell-based, human; conditions: Fab 10 μg/ml
Procedure: (§1) The effect of presently disclosed anti-FZD5 Fabs on proliferation of RNF43 loss-of-function mutant pancreatic cancer cell lines HPAFII, PATU8988S and ASPC-1; and on pancreatic cancer cell line RWP1, was tested at […] and 10 μg/ml.

HPAFII cells = experiment: as above; format: cell-based, human; conditions: for percent growth inhibition, HPAFII 2 μg/ml: Fab 2 μg/ml; for percent growth inhibition, HPAFII 10 μg/ml: Fab 10 μg/ml
Procedure: as §1

RWP1 cells [3] = experiment: as above; format: cell-based, human; conditions: Fab 10 μg/ml
Procedure: as §1

PATU8988S cells [4] = experiment: as above; format: cell-based, human; conditions: Fab 10 μg/ml
Procedure: as §1

FZD8 CRD = biological target: T1, FZD8 CRD; experiment: Immunofluorescence of anti-FZD5 Fab binding to CHO cells overexpressing Frizzled CRD; parameters: key: −: no binding; +: very weak binder; ++: weak binder; +++: good binder; ++++: very good binder
In short: (§2)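 Using immunofluorescence plus flow cytometry, we examine Fab binding to surface CRDs of individual Frizzled receptors, each expressed on CHO cells as a myc-GPI fusion from a lentiviral vector.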

FZD6 CRD = biological target: T2, FZD6 CRD; experiment: as above; parameters: key: −: no binding; +: very weak binder; ++: weak binder; +++: good binder; ++++: very good binder
In short: as §2

FZD2 CRD = biological target: T4, FZD2 CRD (Homo sapiens, UniProt Q14332); experiment: as above; parameters: key: −: no binding; +: very weak binder; ++: weak binder; +++: good binder; ++++: very good binder
T4 construct: D35-P161; GPI anchor signal (C); expressed in transfected cells; host or cells: CHO cells, lentiviral pLenti-puro
In short: as §2

FZD7 CRD = biological target: T5, FZD7 CRD (Homo sapiens, UniProt O75084); experiment: as above; parameters: key: −: no binding; +: very weak binder; ++: weak binder; +++: good binder; ++++: very good binder
T5 construct: D45-S169; GPI anchor signal (C); expressed in transfected cells; host or cells: CHO cells, lentiviral pLenti-puro
In short: as §2

FZD5 CRD = biological target: T3, FZD5 CRD; experiment: as above; parameters: key: −: no binding; +: very weak binder; ++: weak binder; +++: good binder; ++++: very good binder
In short: as §2

RWP1 cells [5] = experiment: Effect of anti-FZD5 Fabs on proliferation of pancreatic cancer cell lines (percent growth inhibition); format: cell-based, human; conditions: Fab 2 μg/ml
[6] = tested on: CHO cells not expressing Frizzled CRD; experiment: Flow cytometry of anti-FZD5 Fab binding to CHO cells not expressing Frizzled CRD (background)
Source text: The binding of anti-FZD5 Fabs to cell surface-expressed Frizzled protein was further determined for each member of the Frizzled family via flow cytometry and immunofluorescence analysis of a panel of 10 CHO cell lines, each ectopically over-expressing the extracellular cysteine-rich domain (CRD) of a different Frizzled protein family member.

ASPC-1 cells [7] = experiment: Effect of anti-FZD5 Fabs on proliferation of pancreatic cancer cell lines (percent growth inhibition); format: cell-based, human; conditions: Fab 2 μg/ml

Molecule	percent growth inhibition, PATU8988s 2 μg/ml (PATU8988S cells [1]) [%]	percent growth inhibition, ASPC-1 10 μg/ml (ASPC-1 cells [2]) [%]	percent growth inhibition, HPAFII 2 μg/ml (HPAFII cells) [%]	percent growth inhibition, HPAFII 10 μg/ml (HPAFII cells) [%]	percent growth inhibition, RWP1 10 μg/ml (RWP1 cells [3]) [%]	percent growth inhibition, PATU8988s 10 μg/ml (PATU8988S cells [4]) [%]	Immunofluorescence binding, Frizzled CRD overexpressed on CHO cells: FZD8 (FZD8 CRD)	Immunofluorescence binding, Frizzled CRD overexpressed on CHO cells: FZD6 (FZD6 CRD)	Immunofluorescence binding, Frizzled CRD overexpressed on CHO cells: FZD2 (FZD2 CRD)	Immunofluorescence binding, Frizzled CRD overexpressed on CHO cells: FZD7 (FZD7 CRD)	Immunofluorescence binding, Frizzled CRD overexpressed on CHO cells: FZD5 (FZD5 CRD)	percent growth inhibition, RWP1 2 μg/ml (RWP1 cells [5]) [%]	Median fluorescence, Frizzled CRD overexpressed on CHO cells: None [6]	percent growth inhibition, ASPC-1 2 μg/ml (ASPC-1 cells [7]) [%]
Fab-2914: anti-FZD5 Fab with antibody variable region Fv-2914; CDR SEQ ID NOs: 35, 36, 53, 92, 129, 162 (antibody, V domains shown) VH: EVQLVESGGGLVQPGGSLRLSCAASGFNIYYSYMHWVRQAPGKGLEWVASIYPSSSSTSYADSVKGRFTISADTSKNTAYLQMNSLRAEDTAVYYCARGAMDYWGQGTLVTVSS VL: DIQMTQSPSSLSASVGDRVTITCRASQSVSSAVAWYQQKPGKAPKLLIYSASSLYSGVPSRFSGSRSGTDFTLTISSLQPEDFATYYCQQWYYGSLITFGQGTKVEIK	−15.14	38.30	−4.97	6.47	78.98	−26.59	++	−	+++	++++	++++	68.03	4.37	16.76
Fab-2915: anti-FZD5 Fab with antibody variable region Fv-2915; CDR SEQ ID NOs: 35, 36, 54, 93, 130, 166 (antibody, V domains shown) VH: EVQLVESGGGLVQPGGSLRLSCAASGFNIYYYSMHWVRQAPGKGLEWVASIYSSYGYTSYADSVKGRFTISADTSKNTAYLQMNSLRAEDTAVYYCARGYHYYPYYSGLDYWGQGTLVTVSS VL: DIQMTQSPSSLSASVGDRVTITCRASQSVSSAVAWYQQKPGKAPKLLIYSASSLYSGVPSRFSGSRSGTDFTLTISSLQPEDFATYYCQQAYYHSLITFGQGTKVEIK	−6.43	4.18	−16.37	−31.87	45.04	−19.02	+	−	+++	++++	+++	48.66	4.49	5.51
Fab-2913: anti-FZD5 Fab with antibody variable region Fv-2913; CDR SEQ ID NOs: 35, 36, 52, 91, 128, 165 (antibody, V domains shown) VH: EVQLVESGGGLVQPGGSLRLSCAASGFNISYSSIHWVRQAPGKGLEWVASIYPYSSSTSYADSVKGRFTISADTSKNTAYLQMNSLRAEDTAVYYCARYGYYGLDYWGQGTLVTVSS VL: DIQMTQSPSSLSASVGDRVTITCRASQSVSSAVAWYQQKPGKAPKLLIYSASSLYSGVPSRFSGSRSGTDFTLTISSLQPEDFATYYCQQWGVSHYLFTFGQGTKVEIK	−15.09	−7.73	−5.59	−28.52	68.29	−43.04	−	−	+++	++++	++	59.79	3.85	2.25
Fab-2916: anti-FZD5 Fab with antibody variable region Fv-2916; CDR SEQ ID NOs: 35, 36, 55, 94, 131, 167 (antibody, V domains shown) VH: EVQLVESGGGLVQPGGSLRLSCAASGFNISYSSIHWVRQAPGKGLEWVASIYPSYSYTYYADSVKGRFTISADTSKNTAYLQMNSLRAEDTAVYYCARYGYYGMDYWGQGTLVTVSS VL: DIQMTQSPSSLSASVGDRVTITCRASQSVSSAVAWYQQKPGKAPKLLIYSASSLYSGVPSRFSGSRSGTDFTLTISSLQPEDFATYYCQQWYHYPYLITFGQGTKVEIK	−25.67	42.26	31.28	52.29	30.61	−19.08	+	−	++++	++++	++++	1.68	4.22	44.03
Fab-2918: anti-FZD5 Fab with antibody variable region Fv-2918; CDR SEQ ID NOs: 35, 36, 57, 96, 133, 169 (antibody, V domains shown) VH: EVQLVESGGGLVQPGGSLRLSCAASGFNLSYSSIHWVRQAPGKGLEWVASIYSSYSSTSYADSVKGRFTISADTSKNTAYLQMNSLRAEDTAVYYCARFGYWAIDYWGQGTLVTVSS VL: DIQMTQSPSSLSASVGDRVTITCRASQSVSSAVAWYQQKPGKAPKLLIYSASSLYSGVPSRFSGSRSGTDFTLTISSLQPEDFATYYCQQAFGASLFTFGQGTKVEIK	−0.86	45.56	37.15	44.60	39.24	−1.92	+	−	−	+	++++	3.49	3.13	44.67
